biological target: HLA-A*02:01 (Homo sapiens, UniProt P04439, D140Y/D185E/D98H/E176V/E277Q/G131W/G231S/I119V/I121R/I166T/I218V/L300P/L318F/N151K/N90K/P208A/P217A/Q86G/Q94H/R138H/R169H/T345S); assay: MHC binding assay (UV-ligand exchange, β2m ELISA, peptide exchange yield); conditions: MHC class I binding score; binding to HLA-A*02:01 ranged by peptide exchange yield (UV-ligand exchange, β2m ELISA)
How it was run: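 Binding is expressed as peptide exchange yield: stabilized MHC complexes were quantified by β2m ELISA, with a 450 nm TMB read-out on streptavidin-coated plates. Complexes came from UV-ligand exchange, where UV irradiation cleaves a photolabile peptide so the candidate peptide can load.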

Substance | Peptide exchange
339 (GLWEIENNPTVKA; listed as Homo sapiens) [compound 339] | ″++++″ (≧75% = ++++)
340 (ALLSMTFPL; listed as Homo sapiens) [compound 340] | ″++++″ (≧75% = ++++)
341 (SQIALNEKLVNL; listed as Homo sapiens) [compound 341] | ″+++″ (≧50% = +++)
342 (HIYDKVMTV; listed as Homo sapiens) [compound 342] | ″+++″ (≧50% = +++)
343 (SLLEVNEESTV; listed as Homo sapiens) [compound 343] | ″+++″ (≧50% = +++)
344 (YLQDQHLLLTV; listed as Homo sapiens) [compound 344] | ″+++″ (≧50% = +++)
345 (VIWKALIHL; listed as Homo sapiens) [compound 345] | ″+++″ (≧50% = +++)
346 (LLDSKVPSV; listed as Homo sapiens) [compound 346] | ″+++″ (≧50% = +++)
347 (SLFKHDPAAWEA; listed as Homo sapiens) [compound 347] | ″++++″ (≧75% = ++++)
348 (ILLDVKTRL; listed as Homo sapiens) [compound 348] | ″++++″ (≧75% = ++++)
349 (SLTEYLQNV; listed as Homo sapiens) [compound 349] | ″++++″ (≧75% = ++++)
350 (ALLDVTHSELTV; listed as Homo sapiens) [compound 350] | ″+++″ (≧50% = +++)
351 (SLIPNLRNV; listed as Homo sapiens) [compound 351] | ″+++″ (≧50% = +++)
352 (SLLELLHIYV; listed as Homo sapiens) [compound 352] | ″+++″ (≧50% = +++)
353 (YLFEMDSSL; listed as Homo sapiens) [compound 353] | ″++″ (≧20% = ++)
354 (LILEGVDTV; listed as Homo sapiens) [compound 354] | ″++″ (≧20% = ++)
355 (SIQQSIERLLV; listed as Homo sapiens) [compound 355] | ″++″ (≧20% = ++)
356 (KLLGKLPEL; listed as Homo sapiens) [compound 356] | ″+++″ (≧50% = +++)
357 (SMHDLVLQV; listed as Homo sapiens) [compound 357] | ″+++″ (≧50% = +++)
358 (ALDEYTSEL; listed as Homo sapiens) [compound 358] | ″++++″ (≧75% = ++++)
359 (YLLPESVDL; listed as Homo sapiens) [compound 359] | ″+++″ (≧50% = +++)
361 (ALYELEGTTV; listed as Homo sapiens) [compound 361] | ″+++″ (≧50% = +++)
362 (TLYGLSVLL; listed as Homo sapiens) [compound 362] | ″+++″ (≧50% = +++)
363 (KVLDVSDLESV; listed as Homo sapiens) [compound 363] | ″++″ (≧20% = ++)
364 (LLQNEQFEL; listed as Homo sapiens) [compound 364] | ″+++″ (≧50% = +++)
365 (YVIDQGETDVYV; listed as Homo sapiens) [compound 365] | ″+++″ (≧50% = +++)

Substance | Peptide exchange
366 (RLLDMGETDLML; listed as Homo sapiens) [compound 366] | ″+++″ (≧50% = +++)
367 (SLQNHNHQL; listed as Homo sapiens) [compound 367] | ″+++″ (≧50% = +++)
369 (GLFPEHLIDV; listed as Homo sapiens) [compound 369] | ″+++″ (≧50% = +++)
370 (SLLQDLVSV; listed as Homo sapiens) [compound 370] | ″+++″ (≧50% = +++)
371 (FLQAHLHTA; listed as Homo sapiens) [compound 371] | ″++++″ (≧75% = ++++)
372 (TMLLNIPLV; listed as Homo sapiens) [compound 372] | ″++″ (≧20% = ++)
373 (SLLEDKGLAEV; listed as Homo sapiens) [compound 373] | ″++″ (≧20% = ++)
374 (FLLQQHLISA; listed as Homo sapiens) [compound 374] | ″++″ (≧20% = ++)
375 (SLTETIEGV; listed as Homo sapiens) [compound 375] | ″++″ (≧20% = ++)
376 (AMFESSQNVLL; listed as Homo sapiens) [compound 376] | ″++″ (≧20% = ++)
377 (FLLDSSASV; listed as Homo sapiens) [compound 377] | ″++″ (≧20% = ++)
378 (ALGYFVPYV; listed as Homo sapiens) [compound 378] | ″+++″ (≧50% = +++)
379 (IMEGTLTRV; listed as Homo sapiens) [compound 379] | ″++″ (≧20% = ++)
380 (TLIEDEIATI; listed as Homo sapiens) [compound 380] | ″++″ (≧20% = ++)
381 (FIDEAYVEV; listed as Homo sapiens) [compound 381] | ″++″ (≧20% = ++)
382 (ALQNYIKEA; listed as Homo sapiens) [compound 382] | ″++″ (≧20% = ++)
383 (ALLELENSVTL; listed as Homo sapiens) [compound 383] | ″+++″ (≧50% = +++)
385 (SLLEQGLVEA; listed as Homo sapiens) [compound 385] | ″++″ (≧20% = ++)
386 (ILFRYPLTI; listed as Homo sapiens) [compound 386] | ″+++″ (≧50% = +++)
387 (ALFQATAEV; listed as Homo sapiens) [compound 387] | ″++++″ (≧75% = ++++)
388 (SLTIDGIRYV; listed as Homo sapiens) [compound 388] | ″+++″ (≧50% = +++)
389 (LLADVTHLL; listed as Homo sapiens) [compound 389] | ″++″ (≧20% = ++)
390 (ALFMKQIYL; listed as Homo sapiens) [compound 390] | ″+++″ (≧50% = +++)
391 (YVYPQRLNFV; listed as Homo sapiens) [compound 391] | ″+++″ (≧50% = +++)
392 (ALLHPQGFEV; listed as Homo sapiens) [compound 392] | ″++″ (≧20% = ++)
393 (GLLDTQTSQVLTA; listed as Homo sapiens) [compound 393] | ″++″ (≧20% = ++)

Substance | Peptide exchange
394 (LLAVIGGLVYL; listed as Homo sapiens) [compound 394] | ″+++″ (≧50% = +++)
396 (ALLPDLPAL; listed as Homo sapiens) [compound 396] | ″+++″ (≧50% = +++)
397 (YLFGERLLEC; listed as Homo sapiens) [compound 397] | ″+++″ (≧50% = +++)
398 (KLLEEDGTIITL; listed as Homo sapiens) [compound 398] | ″++″ (≧20% = ++)
399 (YLFEPLYHV; listed as Homo sapiens) [compound 399] | ″+++″ (≧50% = +++)
400 (SLLTEQDLWTV; listed as Homo sapiens) [compound 400] | ″++″ (≧20% = ++)
401 (ILLDDTGLAYI; listed as Homo sapiens) [compound 401] | ″+++″ (≧50% = +++)
402 (VLFSGALLGL; listed as Homo sapiens) [compound 402] | ″++″ (≧20% = ++)
403 (KLYDRILRV; listed as Homo sapiens) [compound 403] | ″++″ (≧20% = ++)
405 (ALYDVFLEV; listed as Homo sapiens) [compound 405] | ″++″ (≧20% = ++)
407 (YLMDLINFL; listed as Homo sapiens) [compound 407] | ″+++″ (≧50% = +++)
408 (VLDDSIYLV; listed as Homo sapiens) [compound 408] | ″++″ (≧20% = ++)
409 (LLDAMNYHL; listed as Homo sapiens) [compound 409] | ″++″ (≧20% = ++)
412 (YLDDLNEGVYI; listed as Homo sapiens) [compound 412] | ″++″ (≧20% = ++)
426 (RLADKSVLV; listed as Homo sapiens) [compound 426] | ″+++″ (≧50% = +++)
427 (ALLPLSPYL; listed as Homo sapiens) [compound 427] | ″+++″ (≧50% = +++)
428 (KLGHTDILVGV; listed as Homo sapiens) [compound 428] | ″++″ (≧20% = ++)
429 (GLVNDLARV; listed as Homo sapiens) [compound 429] | ″++″ (≧20% = ++)
430 (HLYSSIEHLTT; listed as Homo sapiens) [compound 430] | ″+++″ (≧50% = +++)
431 (SLVNVVPKL; listed as Homo sapiens) [compound 431] | ″++″ (≧20% = ++)
432 (TLIEESAKV; listed as Homo sapiens) [compound 432] | ″++″ (≧20% = ++)
433 (AMLNEPWAV; listed as Homo sapiens) [compound 433] | ″+++″ (≧50% = +++)
434 (KVSNSGITRV; listed as Homo sapiens) [compound 434] | ″++″ (≧20% = ++)
436 (HLAEVSAEV; listed as Homo sapiens) [compound 436] | ″+++″ (≧50% = +++)
437 (SMAPGLVIQAV; listed as Homo sapiens) [compound 437] | ″+++″ (≧50% = +++)

Source: patent publication US20170037111A1, “Novel peptides and combination of peptides for use in immunotherapy against ovarian cancer and other cancers” (immatics biotechnologies GmbH, priority 2015, published 2017)
